{
  "source": "patent US10175123B2",
  "about": "“MEMS-based calorimeter, fabrication, and use thereof” (THE TRUSTEES OF COLUMBIA UNIVERSITY IN THE CITY OF NEW YORK, priority 2013, dated 2019)",
  "key": {"[1]": {"assay": "MEMS AC-DSC measurement of lysozyme unfolding", "type": "physicochemical", "conditions": "10 and 20 mg/mL, 0.1 M Glycine-HCl pH 2.5, 25 to 82 °C at 5 °C/min, AC modulation 1, 5 or 10 Hz; depends on modulation frequency", "text": "The MEMS AC-DSC device calibrated above was used to measure the thermal behavior of protein unfolding.\nMeanwhile, the specific heat capacity (c) of the protein as a function of temperature can be computed from the thermopile voltage amplitude (FIG. 19)."}, "[2]": {"assay": "Polymer MEMS DSC measurement of lysozyme unfolding", "type": "physicochemical", "conditions": "0.1 M Glycine-HCl buffer pH 2.5, 5 K/min, all concentrations except 1 mg/mL", "protocol": "Before DSC measurements, the baseline, i.e., the thermopile output voltage in the absence of a differential power input, during temperature scanning in the range of interest was recorded with both calorimetric channels filled with buffer solutions. After which, characterizations of biomolecules were performed with the calorimetric channels, respectively filled with a biological sample and a buffer solutions, and scanned in the same range with pre-specified rate. The temperature sensors were used to monitor the temperatures of calorimetric channels, while the device output was obtained in real time to compute the biomolecular thermal power.\nThe calibrated polymer MEMS DSC device was then exploited to characterize protein unfolding. Glycine-HCl buffer (0.1 M, pH 2.5) was filled in both sample and reference calorimetric channels while the device was scanned at a constant rate of 5 K/min. […]\nThe thermopile differential voltage as a function of temperature, corrected by baseline subtraction, was measured at varying concentrations ranging from 1 to 20 mg/mL (FIG. 42). […] Furthermore, the differential heat capacity as a function of temperature and the calibrated device sensitivity can be calculated from the device voltage output by Equation 7. The sample heat capacity as a function of temperature was determined by: […]"}, "[3]": {"conditions": "typical range of published data; cited from earlier work"}, "[4]": {"assay": "MEMS DSC measurement of lysozyme unfolding", "type": "physicochemical", "conditions": "1 to 20 mg/mL in 0.1 M Glycine-HCl buffer pH 2.5, scan 25-75 °C at 5 °C/min", "protocol": "DSC measurements of biomolecules were performed using the calibrated microdevice, whose sample chamber and reference chamber were respectively filled with biological sample and buffer solutions, scanned in a range of temperature of interest. The temperature sensors were used to monitor the temperatures of calorimetric chambers while the device output was obtained in real time to compute the biomolecular thermal power. Before DSC measurements, the baseline in device output, i.e., the thermopile output voltage in the absence of a differential power input, during temperature scanning was measured with both calorimetric chambers filled with buffer solutions. […]\nThe thermopile output voltage as a function of temperature, corrected by baseline subtraction, was measured at varying protein concentrations ranging from 1 to 20 mg/mL (FIG. 10).\nDespite the amplitude difference of device output at various protein concentrations, they all yielded consistent estimates of the thermodynamic properties associated with the protein unfolding process. In particular, the profile shape of c was generally not influenced by protein concentration, and ΔH was consistently determined to be approximately 450 kJ/mol with a corresponding melting temperature Tm of approximately 55° C."}},
  "data": [
    {"substance": "lysozyme: targeted sample biomolecule, purchased from Sigma Aldrich (lyophilized powder, protein ≥90%)", "values": [
      {"measurement": "apparent melting temperature (Tm)", "setting": "[1]", "value": "55-58 °C"},
      {"measurement": "melting temperature Tm", "setting": "[2]", "value": 54.71, "unit": "°C"},
      {"measurement": "total enthalpy change per mole (ΔH) of unfolding", "setting": "[2]", "value": 101, "unit": "kcal/mol"},
      {"measurement": "Tm, published data", "setting": "[3]", "value": "55-58.9 °C"},
      {"measurement": "ΔH of unfolding, published data", "setting": "[3]", "value": "90.1 to 105", "unit": "kcal/mol"},
      {"measurement": "melting temperature Tm", "setting": "[4]", "value": "approximately 55 °C"},
      {"measurement": "total change of molar enthalpy (ΔH) of unfolding", "setting": "[4]", "value": "approximately 450 kJ/mol"}
    ]}
  ]
}
